# Laboratory results reported in the DeepSol protein solubility set.
# Experiment: soluble on expression in E. coli; label from the status in PepcDB or PDB records
row,Sequence,soluble on expression in E. coli
1,MSLRTTESEKGLRMPGLPPMVAPPAEQVDDPVTATDAANAVDAVLRGVLDERLRHCRAVDPLFARELADRLAALTARGGKRLRTAFAHCGWRAAGGSGDATAVLRTGAALELLQACALVHDDVMDGSVQRRGAPALHVDLARGHWAAGMHGSSESFGTSAAVLTGDLALAWADDLLTETALGTPHGPRLHGEWRAMRTEMVAGQYRDLHAQAARSSGVDEALAIATLKSALYTVARPLALGAVLAGAADGDALEALRAAGRCAGLAFQLRDDLLGAFGDPALTGKPADDDLRSRKLTYLLAVAVRLADAADDHLAAAALAPDADPKSEKAVRQVRSALVRTGARDLVETKIGELTDMSLAHFDRCGARPAVRHEFAALIGRATGAVPRGTGEVVEGHHHHHH,soluble
2,MVFVKTLHRTLFLEVAANEDVLSIKQKIEAAEGIPAEEQRLCYAGRQLEDSDCGIDSEATIYVNLELLGGAKKRKKKVYTTPKKNKRKPKKVKLAVLKYYKIDENGKITRLRKECQQPSCGGGVFMAQHANRHYCGRCHDTLVVDTATAAATSGEKGGKKGKK,not soluble
3,MTLVSIVAPNLIEQGKVMEMLQGGRDNAIYRTGDRVSRPASSWTMTVHQLLNHLHSNGFTQCPKVIGIEGGKEWLSFVEGDTFNYPLQGSIASVTALLSAAKMLRRMHDASEDFLISHQSEVCHWMLPDRVPQEVICHGDFMPYNVALNGETVVGVFDFDTAHPAPRLWDVAFSIYGWAPFKTDENDRMGNLEQQIQRAKLFCDAYGCSKLERENLVDVMTLRLTALVDYMRLMASSRDERFQANLEEGHHIAYLQDIDYLRQHHQAITLGMLKER,not soluble
4,MNSAVGAELFMGDDGVSLRPGLGGTESVLESWRYIMGKLRVGRFLISSRVNGPGRRFVIWFQGCPIRCRGCLNPEFHDEDGGHLIETARLVDMIRDLRDEIEGVTFTGGEPLAQAMELVKLAGAVKSMGLTVVCFTGYEMDEILKGNIEGGLELLEFVDVLIDGPYIEEKSAPLLWRGSTNQDVYFLTERYAEFRDRVMACSEMEAELKVGADGVYMTGIFDVEFWEELRRRLGDGSLEHHHHHH,not soluble
5,MGSDKIHHHHHHMNLNALIDFMLVANNEGLGKASRASGISKATLSRRIADLEEQLGVRLIERSARGLKLTEAGEMLMARTEGPLGEVAEAMTATRDGVATPRGRLRVASPVLFSQLAMGRIGAGFYAAYPEVIIEVTAEDRLVDLVEEQFDVAIRINPDPDSRLVGRCFARDRLVVVAAPELPRPMPGAIRQTPAIVTSSFQPTHWKLDNGHLVLKPIPKLWFSSLMMVRDAAVAGGGAALIPQSIAWSQLASGQLVQWGTVSGAEPELWVLHTSRRLVSPKVRAFVDFICASNPDMSLVLKG,not soluble
6,MSRIIALIISFLLVGCATPPMPAQRIVGEVRMSRPLSRIAHIDVSMFGLYEGKVREVQRTHFETGNLPLFFSIKLNPAQRGEGELYLRSTLSFPERGVQAVAQQKLTGKNKVVLQMIPKTCYPNCQLPNTR,not soluble
7,MKRPNFLFVMTDTQATNMVGCYSGKPLNTQNIDSLAAEGIRFNSAYTCSPVCTPARAGLFTGIYANQSGPWTNNVAPGKNISTMGRYFKDAGYHTCYIGKWHLDGHDYFGTGECPPEWDADYWFDGANYLSELTEKEISLWRNGLNSVEDLQANHIDETFTWAHRISNRAVDFLQQPARADEPFLMVVSYDEPHHPFTCPVEYLEKYADFYYELGEKAQDDLANKPEHHRLWAQAMPSPVGDDGLYHHPLYFACNDFVDDQIGRVINALTPEQRENTWVIYTSDHGEMMGAHKLISKGAAMYDDITRIPLIIRSPQGERRQVDTPVSHIDLLPTMMALADIEKPEILPGENILAVKEPRGVMVEFNRYEIEHDSFGGFIPVRCWVTDDFKLVLNLFTSDELYDRRNDPNEMHNLIDDIRFADVRSKMHDALLDYMDKIRDPFRSYQWSLRPWRKDARPRWMGAFRPRPQDGYSPVVRDYDTGLPTQGVKVEEKKQKF,soluble
8,MKKVLLFAVVFSCSMWANAQRVTWATEAGLSAIQRTGYGECWRPSTRLGISADYNVNNMFSMKSGLYYTFRGYSVNNGGTYSNGDATWIENVSQTRHFLQVPILAKFSIHSNNSTKFFFEIGSYIGYCIKNHIDSNPYYLTMPSSGWVEGYPGVGESAEGGSNQFLYQHARNFDWGMTSAVGIENRRWTVKLQYEMSLGKESKNDNIGVNYNSLTLSVGYKLNVKQ,not soluble
9,MSLTASVAAAPDPASLAPELAHIAPALKAEILAQALPYIRKFHGKTIVIKYGGNAMTEEKLKHGFARDVILLKLVGMNPVVVHGGGPQIDDALKKVGKTGTFIQGMRVTDEETMEVVEWVLGGEVQQDIVMLINQYGGQAVGLTGKDGGLIRAKKLQMPDREKPGQFIDIGFVGDIETINPAVVRALQDDAFIPVISPIGFSDDGQAYNINADVVAGKMAEILKAEKLVMMTNIPGVLDKQGNLLTDLSAREIDELFADGTISGGMLPKISSALDAAKSGVHSVHIIDGRIEHSLLLEILTEQAFGTMIRSHEGHHHHHH,soluble
10,GPGSMDAGSDEAVQKKMQEFLSKDAMEELRNIGDRTESRVRHGLLPRDYQQQQHQKDYQTANVTHEEEVNSYIQQRRTWRENVFLLRDFEYWRLRAEYYPYVRRGDEQNDNFFIRGIACHPRLSDYPMCRKPIQDYFVCRDKNKILQLFNLCAPMKEQFCACINEVFVKNHERGDKKFNAQRNEYFEEQRNRRLSKMMAHVEDSMEKRKKLQD,not soluble
11,MHLLLLHGFTSHPVLTLGPLSERLKEAGWEVRQPALPGHGTRPEDLLKVRFQDWLLAAEEAYLELPEPRGVVGLSMGGLLAAHLAARHPTKALVALAPAFALKNPLAPYLHWLIPRFPGPPSIEDPELRKRNPNYPYFPTRAVLELLALMRKTPEVLPRVKARALVVEAGKDRVVKGVDRYFALLGSPRKDHLVFPESGHDLLLDRDREEVARAVRDWLLASDNYLQ,soluble
12,EEHTIIQAEFYLLPDKRGEFMFDFDGDEIFHVDIEKSETIWRLEEFAKFASFEAQGALANIAVDKANLDVMKERSNNTPDANVAPEVTVLSRSPVNLGEPNILICFIDKFSPPVVNVTWLRNGRPVTEGVSETVFLPRDDHLFRKFHYLTFLPSTDDFYDCEVDHWGLEEPLRKHWEFEE,soluble
13,MGSDKIHHHHHHMSEHLTLPTNKPQVTHFSSGPCAKHPGWSVSNLENACLGRSHRSEDGKAKLSEVIERSKQILGLPADYRLGIVPASDTGAVEMALWSLLGQRPLDILAWESFGQEWVKDVVDELKLPDVRLLKAPYGGLPNLDEVDFSHDVVFLWNGTTSGVRVPNGDWIKDDRQGLTICDATSAVFAMDIPWEKIDVLTYSWQKVLGGEAQHGVIVLSPRAVERLQTYEPAWPIPKIFRLSQKGKLIEGIFKGDTINTPSMLCVEDALDALIWAESVGGLPGLISRSEANLAAIAQWVKQSNWADFLAEKPETRSCTSICLKIVDAAFASLSAEDQGKFAKKLAKLLEKQQVAYDIAPYRAAPPGLRIWGGATVETADIEALLPWLDWAYANVKAEFVPVA,not soluble
14,DPAAADRAEELRIQNLLKQLQQAVTNNDLTIYYQPIMSLQQQSLELYQIYIGLHGDEELISSVTLLEIAKKRELIAQIDRWVVARAIAQIGERQRAGHTTHLLVQIDSASFTDPQLLTMLRTELAAHHVRGEQLWLQTPESKVFTHLYNAQQFLSEISVQGCKMGLEQFGTGLDSFQLLTHFKPAFLKLDRNLTQDINSNHDSLEKIREITSRAQDNGIATFAEFVTDSTSMSALFKVGVDYVQGDFVAPI,not soluble
15,QCTNGFDLDRQSGQCLDIDECRTIPEACRGDMMCVNQNGGYLCIPRTNPVYRGPYSNPYSTPYSGPYPAAAPPLSAPNYPTISRPLICRFGYQMDESNQCVDVDECATDSHQCNPTQICINTEGGYTCSCTDGYWLLEGQCLDIDECRYGYCQQLCANVPGSYSCTCNPGFTLNEDGRSCQDVNECATENPCVQTCVNTYGSFICRCDPGYELEEDGVHCSDMDECSFSEFLCQHECVNQPGTYFCSCPPGYILLDDNRSCQDINECEHRNHTCNLQQTCYNLQGGFKCIDPIRCEEPYLRISDNRCMCPAENPGCRDQPFTILYRDMDVVSGRSVPADIFQMQATTRYPGAYYIFQIKSGNEGREFYMRQTGPISATLVMTRPIKGPREIQLDLEMITVNTVINFRGSSVIRLRIYVSQYPF,soluble
16,MNRKRKWQIPPPSEPVTDEYLTSVTIGERKPLNDRIQLAEYDLRWPSMFSVAADKIRSALSEKALLVEHVGSTSVPGLAAKLIIDMLLGVTDSADEKSYVLPLEQQGFVLQAREPGWYEHRFFRLKSGDMEWHLHVFSAECEEIDRMLAFRNWLRVHDDDRQRYENVKRTLAARTWKHMQNYADAKSDIVREILGRAQDDHVVGITSEAVSAAFRFR,not soluble
17,MGSDKIHHHHHHMIYCDHCVMPNTRPGINFTKDKEGKNICSACINHKNKENIDYKARFKELEVLCDKYRRMNGKFEYDCAIAVSGGKDSHFQVHIMKEKLGMNPILFSVEDNFTMTEAGKKNLKNLSETFGCHIISLKPDIKTQKKVMLKTFEKYGKPTWFIDRLIYSYPFAMALKFNTPLLVYGENVSYEYGGSDTEETPSAKEIFLNGVASDLNINEFIDDEIKEENLQLFFNPNKDKLDKLNPIYLSYFVKWNSYSNYIFAKSRGFTDLEGEWDRTMCAENFDQVDSIGYILHAWMKYPKFGHACASDYAARFVRYGLLSRKEAIELVQKRDHKLDNKCVEDFCNFIGISKTTFWKIVEKHYNMDLFYKNDFGEFKLKNKLQ,not soluble
18,MGSDKIHHHHHHMLRPHHSDNEQITLRSLLQSYRDQTTSNVVWGKIFEDFVTKYLMHDPLHYGRYEKVESYYEWAKERKDWNKNDIGIDLVAKLRHQESYVAIQCKFYKADHQISKKDIDSFIAESGKKIFKYRLLVDSTEVELSDNVNAMIKGQAIPIYRIDLRHMENSRIDWQTYATKKEVVLKSIKKPLPHQEPTMRPRAWIKAFSALAVASFK,not soluble
19,APQVVDKVAAVVNNGVVLESDVDGLMQSVKLNAAQARQQLPDDATLRHQIMERLIMDQIILQMGQKMGVKISDEQLDQAIANIAKQNNMTLDQMRSRLAYDGLNYNTYRNQIRKEMIISEVRNNEVRRRITILPQEVESLAQQVGNQNDASTELNLSHILIPLPENPTSDQVNEAESQARAIVDQARNGADFGKLAIAHSADQQALNGGQMGWGRIQELPGIFAQALSTAKKGDIVGPIRSGVGFHILKVNDLRGESKNISAAQKDRAYRMLMNRKFSEEAASWMQEQRASAYVKILSN,soluble
20,SLKAKILFVGPCESGKTVLANFLTESSDITEYNPTQGVRILEFENPHVTSNNKGTGCEFELWDCGGDSKFESCWPALMKDAHGVVIVFNADIPSHLKEIEMWYSCFVQQQFLQDSHCMLVAHHKPGSGGERGSLALSPPLNKLKLVHSNLEEDPEEVRVEFIKYLKSIINSMSESRDREEMLIIT,soluble
21,MGSDKIHHHHHHMMTQLSAPTLTKDPLTTQDRQIIATIVNQSDYSKNCKPEDVVTIWISEDDTTVWVKMIHGYARYHKQSFKRAVAEVKASLSAPVKCNHKEERELKQAAEKIGLLGDCDWLSLSVQYYPDKVIGHAGCYTSQKPQLLTPLAEWDFTLPKWNMPAAICPDCGGHGCGNCGYRGTRAEDLCKPVDGYRLTYVGRTDLQTAHNVYLDGEFLGILFKVRNADELWENDPKTYYWRCGDGVRYWSVKEAVEVLSRTTAPIELPQVCRELVAA,not soluble
